Laboratory results taken from the nanobody polyreactivity screen of Harvey et al. (2022).

Assay: yeast display, Sf9 membrane polyspecificity reagent, FACS + sequencing; frameworks hold sequencing errors
Method in brief: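 A synthetic nanobody library was expressed on Saccharomyces cerevisiae BJ5465 by galactose induction for 36–48 hours. The library was stained for 1 hour at 4 °C with 10% biotinylated, detergent-solubilized Sf9 membrane reagent and enriched with streptavidin microbeads before FACS. Low and high (top ~1%) gates were set on anti-HA fluorescence for expression and streptavidin fluorescence for reagent binding, and each polyreactivity label reflects the gate of origin.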

## QFQLVESGGGLVQAGGSLRLSCAASGRIFFRNAMGWYIQAPGKETELVADNTNGGSTNYADSEKGRFTISRDNAKYTVYLQMNSLNPEDTAVYYCAADTLGVYDGDYWGQGTQVTVSS
  polyreactivity (PSR sort gate): low polyreactivity

## QVQLQESGGGLVLAGGSLRLSCSASGNISVYGSMGWYRQAPGKEREFVATIDPGTNTNYADSVKDRFTISRDNAKNTVYLQMNSLKPEDTAVYYCAVEAGSDWLYRYWGQGTKVTVSS
  polyreactivity (PSR sort gate): low polyreactivity

## QVQLVESGGGLVQAGGSLRLSCAASGSIFIVYAMGWYRQAPGKERELVATITSGGSTNYADSVKGRFTISRDNAKNTVYLQMNSLKPEDTAVYYCATQFPPSTIYDYWGQGTQVTVSS
  polyreactivity (PSR sort gate): low polyreactivity

## QVQLVESGGGLVQAGGSLRLSCAASGRISGYAMGWYRQAPGKERELVAAISTRGGTTYYADSVKGRFTISRDNAKNTVYLQMNSLSPEDTAVYYCNAASSRWPEYDYWGQGTQVTVSS
  polyreactivity (PSR sort gate): high polyreactivity

## QVQLVESGGGLVQAGGSLRLSCAASGRIFGYNAMGWYRQAPGKERELVAAISSTGNTYYADSVKGRFTISRDNAKNTVYLQMNSLKPEDTAVYYCARSWLYSQRRYDYWGQGTQVTVSS
  polyreactivity (PSR sort gate): low polyreactivity

## QDQLVESGGGLVQAGGSLRLSCAASGSISVANAMGWYRQAPGKERELVAAISWRSDSTYYADSVKGRFTISRDNAKNTVYLQMNSLKPEDTAVYYCAASQYPLIWYDYWGQGTQVTVSS
  polyreactivity (PSR sort gate): low polyreactivity

## QVQLVESGGGLVQAGGSLRLSCAASGSTFPPNAMGWYRQAPGKESELVAAISFSSGRTYYADSVKGRFTISRDNAKNTVYLQMNSLKPEDTAVYYCAADHGYWGQGTQVTVSS
  polyreactivity (PSR sort gate): low polyreactivity

## QVQLVESRGGLVQAGVSLRLSCSASGSIFPYYAMGWYRQAPGKEREFVASISSVTSTYADSVKGRFTISRDNAKNTVYFQMYILIPEDTAVYYFAADRAYSWYSVSRNNYWGPGTQVTVSS
  polyreactivity (PSR sort gate): low polyreactivity

## QVQLVDSGGGLVQAGGSLRLSCAASGLIFTYYAMGWYRQAPGKERELVAAINYSGGSTYYADSVKGRFTISRDNAKNSVYLQMNSLKPEDTAVYYCAARRVTQTEGPMGYWGQGTQVTVSS
  polyreactivity (PSR sort gate): low polyreactivity

## QVQLVESGGGLVQAGGSLRLSCAASGFTCSSNAMGWSRLAAGKERELVAAISSSGARTYYADSVKGRFTISRDNAKTTVYLQMNSLKPEDTAVYYCNARGLAGRKGYDYGGQGTQVTVSS
  polyreactivity (PSR sort gate): high polyreactivity

## QVQLVESGGGLVQAGGSLRLSCAASGRTFAYNAMGWYRQAPGKDRELVAAITRRGGSTYYADSVKGRFTISRDNAKNTVYLQMNSLKPEDTAVYDCAKVLGGLPHGEVLDEYDYWGQGTQVTVSS
  polyreactivity (PSR sort gate): low polyreactivity

## LVQLVQSGGGLVQAGGSLRLSCAASGLTFDYYAKGWYRQAPGKERELVAVISSGGSTYYADSVKGRITISRDNAKNTVYLQMNSLKTEDTAVYYCAAEIYRYRLRDEYDYWGQGTQVTVSS
  polyreactivity (PSR sort gate): low polyreactivity

## QVQLVESGGGLVQAGGSLRLSCAASGRILRQYAMGWYRQAPGKERELVAAITSSGGSTYYADSVKGRFTNSRDNAKNTVYLQMNSLKPEDTAVYYCAARYYPSGYRKKMYYWGQGTQVTVSS
  polyreactivity (PSR sort gate): high polyreactivity

## QVQLVESGGGLVQAGGSLRLSCAASGSIFRKYTMGWYRQAPGKERELVAAISGTAGRTYYADSVKGRFTISRDNAKNTVYLQMNSLKPEDTAVYYCAARRFGGYGYNYWGQGTQVTVSS
  polyreactivity (PSR sort gate): high polyreactivity

## QVQLVESGGGLVQAGGSLRLSCAASGSIFSAYVMGWYRQAPGKERELVAAITRSGGSTYYADSVKGRFTISRDNAKHTVYLQMNSLKPEDTAVYYCAAKSIIRPYAPRRDDMDYWGQGTQVTVSS
  polyreactivity (PSR sort gate): low polyreactivity

## QVQLVESGGGLVQAGGSLRLSCASSGRIFSVYTMGWYRQAPGKERELVAAISSGASTNYADSVKGRFTISRDNAMNTVYLQMKSLKPEDTAVYYCAAVSPRRYRYDYWGQGTQVTVSS
  polyreactivity (PSR sort gate): low polyreactivity

## QVQLVESGGGLVQAGGSLRLSCAASGITFYTYAMGWYRQAPRKERELVAAISGSGGSTYYADSVKGRFTISRDNAKNTVYLQMNSLKPEDTAVYYCAARWPRGPFGNRHDYWGQGTQVTVSS
  polyreactivity (PSR sort gate): high polyreactivity

## QVQLVESGGGLVQAGGSLRLSCAASGFTIRYYAMGWYRQAPGKERELVAAIRFSGGSTYYADSVKGRFTISRDNAKNTVYLQMNSLKPEDTAVYYCNARRRYGLDLGTFGYWGQGTQVTVSS
  polyreactivity (PSR sort gate): high polyreactivity

## QVQLVESGGGLVQAGGSLRLSCAASGSTFGGYVMGWYRQAPGKERELVAAISRSGASTYYADSVKGRFTISRDNAKNTVYLQMNSLKPEDTAVYYCAAYQARGMDYWGQGTQVTVSS
  polyreactivity (PSR sort gate): high polyreactivity

## QVQLVESGGGLVQAGGSLRLSCAASGLTFRWYAMGWYRQAPGKERELVAAISWSGGSTYYADSVKGRFTISRDNAKNTVYLQMNSLKPEDTAVDYCAASYYADRSKAYDYWGQGTQLTVSS
  polyreactivity (PSR sort gate): high polyreactivity

## QVQLVESGGGLVQAGGSLRLSCAASGGIFFINAMGWYRQAPGKERELVAAISISDGSTYYADSVKGRFTISRDNAKNTVYLQMNSLKPEDTAVYYCAAEGFDWDSPEMEYWGQGTQVTVSS
  polyreactivity (PSR sort gate): low polyreactivity

## QVQLVESGGGLVQAGGSLRLSCAASGLTFYINDKGWYRQAPWKERELVAAINYSGGSTYYADSVKGRFTISRHNAKNTVYLQMNSLKPEDTAVYYCAADVSRWWGQHRYYSWGQGTQVTVSS
  polyreactivity (PSR sort gate): high polyreactivity

## QVQLVESGGGLVQAGGSLRLSCAASGYIFVRNAMGWYRQAPGKERELVAAISGSGGSTYYADSVKGRFTISRDNAKNTVYLQMNSLKPEDTAVYYFAADYATVTWRGIAYDYWGQGTQVSVSS
  polyreactivity (PSR sort gate): low polyreactivity

## QVQLVESGGGLVQAGGSLRLSCAASGRTFYANAMGWYRQAPGKERELVAAISWGGGSTYYADSVKGRFTISRDNAKNTVYLQMNSLKPEDTAVYYCNADLGRATFYQRVFIERGGYWGQGTQVTVSS
  polyreactivity (PSR sort gate): low polyreactivity

## QVQLVESGGGLVQAGGSLRLSCAASGSIFNEYAMGCYRQAPGKERELVAAISTSGDITYYADSVKGRFTISRDNAKNTVDLQMNSLKPEDTAVYYCAAKYSLLRQYNRLDSWGQGTQVTVSS
  polyreactivity (PSR sort gate): low polyreactivity

## QVQLVESGGGLVQAGGSLRLSCAASGSTFAYNAMGWYRQAPGNERELVAAISFTGDSTYYADSVKGRFTISRDNAKNTVYLQMNSLKPEDTRTSPVLSYDYWGQGTLVTVSS
  polyreactivity (PSR sort gate): low polyreactivity

## QVQLGESGGVLVQAGGSLRLICAACGSTFSYYTMGWYRKAPGKEREVVAVIYTSGGNTYYADSVKGRFTISRDNAKNTVYLQMNSLKPEDTAVYYCAARWYGRGRYEYWGQGTQVTVSS
  polyreactivity (PSR sort gate): high polyreactivity

## QVQLVESGGGLVQAGGSLRLSCAASGFILEGYAMGWYRQAPGKERELVAAITRRGTRTYYADSVKGRFTISRDNAKNTVYLQMNSLKPEDTAVFYCNAESRSTWVAGYDYWGQGTQVTVSS
  polyreactivity (PSR sort gate): high polyreactivity

## QVQLVESGGLLVQAGGSLRLSCAASGFIFNQYAMGWDRQAPAKVREFVAGISWSGGATYYADSVKGRFTISRDNAKNTVYLQMNSLKPEETAVYYCAADRTYSFYYTQGYEYWGQGTHVTVSS
  polyreactivity (PSR sort gate): low polyreactivity

## QVQLLESGGGLVQAGGSLRLSCAHSGLIIWANAMGWYRQAPGKESEMVAAISGSGGRTYYADSVKGRFSISRDNAKNTVYLEMNSLIPEDTAVYFCAAKVSAWKKKSEMNYWGQGTQVTVSS
  polyreactivity (PSR sort gate): high polyreactivity

## QDQLVESGVGLVQAGGSLRLSCAASGRILGRNAMGWYRQAPGKERELVAAISSGVSTNYADSVKGRFTISRANAKNTVYLQMNSLKPEDTAVYYWGQGTQVTVSS
  polyreactivity (PSR sort gate): low polyreactivity

## QVQLVESGGGLVQAGGSLRLSCAASGFIFGVYAMGWYRQAPGKERELVAAITGRAASTYYADSVKGRFTISRDNAKNTVYLQMNSLKPEDTAVYYCAARKRYRPGERYEYWGQGTQVTVSS
  polyreactivity (PSR sort gate): high polyreactivity
